The values below come from PMC7319049 (Nature, 2020).

The labels stand for the following.
B1: Rtt102 (natural protein)
chain: MDPQTLITKANKVSYYGNPTSKESWRYDWYQPSKVSSNVQQPQQQLGDMENNLEKYPFRYKTWLRNQEDEKNLQRESCEDILDLKEFDRRILKKSLMTSHTKGDTSKATGAPSANQGDEALSVDDIRGAVGNSEAIPGLSAGVNNDNTKESKDVKMN
B2: Swi1 (natural protein)
chain: MDFFNLNNNNNNNNTTTTTTTTNNNNTNNNNTNNNNNPANNTNNNNSTGHSSNTNNNTNNNNTNTGASGVDDFQNFFDPKPFDQNLDSNNNNSNSNNNDNNNSNTVASSTNFTSPTAVVNNAAPANVTGGKAANFIQNQSPQFNSPYDSNNSNTNLNSLSPQAILAKNSIIDSSNLPLQAQQQLYGGNNNNNSTGIANDNVITPHFITNVQSISQNSSSSTPNTNSNSTPNANQQFLPFNNSASNNGNLTSNQLISNYAASNSMDRSSSASNEFVPNTSDNNNNSNNHNMRNNSNNKTSNNNNVTAVPAATPANTNNSTSNANTVFSERAAMFAALQQKQQQRFQALQQQQQQQQNQQQQNQQPQQQQQQQQNPKFLQSQRQQQQRSILQSLNPALQEKISTELNNKQYELFMKSLIENCKKRNMPLQSIPEIGNRKINLFYLYMLVQKFGGADQVTRTQQWSMVAQRLQISDYQQLESIYFRILLPYERHMISQEGIKETQAKRIFLQQFLQELLKKVQQQQQAAALANANNNINSASSAPTPAAPGASVPATAAPGTEAGIVPVSANTPKSLNSNININVNNNNIGQQQVKKPRKQRVKKKTKKELELERKEREDFQKRQQKLLEDQQRQQKLLLETKLRQQYEIELKKLPKVYKRSIVRNYKPLINRLKHYNGYDINYISKIGEKIDSNKPIFLFAPELGAINLHALSMSLQSKNLGEINTALNTLLVTSADSNLKISLVKYPELLDSLAILGMNLLSNLSQNVVPYHRNTSDYYYEDAGSNQYYVTQHDKMVDKIFEKVNNNATLTPNDSNDEKVTILVDSLTGNQLPTPTPTEMEPDLDTECFISMQSTSPAVKQWDLLPEPIRFLPNQFPLKIHRTPYLTSLKKIKDEIDDPFTKINTRGAEDPKVLINDQLSTISMILRNISFSDNNSRIMSRNFYLKRFISDLLWLVLIHPENFTCNRKILNFKKDLVIVLSNISHLLEIASSIDCLLILILVISFGQPKLNPMASSSSFGSESLTFNEFQLQWGKYQTFGVDILAKLFSLEKPNLNYFKSILLNKNTGNNLYDRNSNNNHKDKKLLRRLLNLYNDNNKNNNNRHNLLNDVVSFLFSAIPLQQVLSQSADPSLLIDQFSPVISQSLTSILVIVQKILPLSNEVFEISENNSDSNSNNNGNKDSSFNFNKNLPFVWLSSEENIGSGLLKLSEIILNINNSTSKNTLLQQQNYSKVLLPSINISCVQLIKCLVEKSICFENCLNNDPEILKKIASIPNLFPTDLEIFQLFTNPSVDIQIINQYQLLYNLKNDILTNLE
B3: Snf5 (natural protein)
chain: MNNQPQGTNSVPNSIGNIFSNIGTPSFNMAQIPQQLYQSLTPQQLQMIQQRHQQLLRSRLQQQQQQQQQTSPPPQTHQSPPPPPQQSQPIANQSATSTPPPPPAPHNLHPQIGQVPLAPAPINLPPQIAQLPLATQQQVLNKLRQQAIAKNNPQVVNAITVAQQQVQRQIEQQKGQQTAQTQLEQQRQLLVQQQQQQQLRNQIQRQQQQQFRHHVQIQQQQQKQQQQQQQHQQQQQQQQQQQQQQQQQQQQQQQQQQQQQQQQQQQQQGQIPQSQQVPQVRSMSGQPPTNVQPTIGQLPQLPKLNLPKYQTIQYDPPETKLPYPTYWSDKKADTDTLLYEQIIQRDKINKYSLIRETNGYDPFSIYGFSNKEYISRLWHTLKYYQDLKNTRMKSITSTSQKIPSASIWGNGYSGYGNGITNTTTRVIPQVEVGNRKHYLEDKLKVYKQAMNETSEQLVPIRLEFDQDRDRFFLRDTLLWNKNDKLIKIEDFVDDMLRDYRFEDATREQHIDTICQSIQEQIQEFQGNPYIELNQDRLGGDDLRIRIKLDIVVGQNQLIDQFEWDISNSDNCPEEFAESMCQELELPGEFVTAIAHSIREQVHMYHKSLALLGYNFDGSAIEDDDIRSRMLPTITLDDVYRPAAESKIFTPNLLQISAAELERLDKDKDRDTRRKRRQGRSNRRGMLALSGTSASNTSMNGVHNTVAAGNASSLPPGEILLPDIADIPRTFRTPVPSTLMPGGVDVGPSVESYELRNTTTYKSRPDRPKPVSPPCYIIDHIPGHSLLLSIKLPGKVNTKEEFAAAPNDTSSGTNAMLPSPESLKTKLNSNIRAGVTIPSIPNPIANHTVTNSPNPTLQPVIPGGAASKSVPTPSLPIAPPVAPHDSEATLLTNSNNGSSNNNTQNT
B4: Arp7 (natural protein)
chain: MTLNRKCVVIHNGSHRTVAGFSNVELPQCIIPSSYIKRTDEGGEAEFIFGTYNMIDAAAEKRNGDEVYTLVDSQGLPYNWDALEMQWRYLYDTQLKVSPEELPLVITMPATNGKPDMAILERYYELAFDKLNVPVFQIVIEPLAIALSMGKSSAFVIDIGASGCNVTPIIDGIVVKNAVVRSKFGGDFLDFQVHERLAPLIKEENDMENMADEQKRSTDVWYEASTWIQQFKSTMLQVSEKDLFELERYYKEQADIYAKQQEQLKQMDQQLQYTALTGSPNNPLVQKKNFLFKPLNKTLTLDLKECYQFAEYLFKPQLISDKFSPEDGLGPLMAKSVKKAGASINSMKANTSTNPNGLGTSHINTNVGDNNSTASSSNISPEQVYSLLLTNVIITGSTSLIEGMEQRIIKELSIRFPQYKLTTFANQVMMDRKIQGWLGALTMANLPSWSLGKWYSKEDYETLKRDRKQSQATNATN
B5: Arp9 (natural protein)
chain: MAPFRQDSILIIYPRSQTTLVQFGLNEETFTVPELEIPTQIYRTTRQDGSYTYHSTNKDNKAELIKPIQNGEIIDISAFTQFLRLIFVSILSDRANKNQDAFEAELSNIPLLLITHHSWSQSDLEIITQYVFESLEINNLIQLPASLAATYSMISLQNCCIIDVGTHHTDIIPIVDYAQLDHLVSSIPMGGQSINDSLKKLLPQWDDDQIESLKKSPIFEVLSDDAKKLSSFDFGNENEDEDEGTLNVAEIITSGRDTREVLEERERGQKVKNVKNSDLEFNTFWDEKGNEIKVGKQRFQGCNNLIKNISNRVGLTLDNIDDINKAKAVWENIIIVGGTTSISGFKEALLGQLLKDHLIIEPEEEKSKREEEAKSVLPAATKKKSKFMTNSTAFVPTIEYVQCPTVIKLAKYPDYFPEWKKSGYSEIIFLGAQIVSKQIFTHPKDTFYITREKYNMKGPAALWDVQF

One assay has as its target Snf2 (S. cerevisiae, UniProt P22082 1-1703). The experiment in a line: cryo-EM structure.
For the assay “Swi1”, the target named is B2. Nature of the assay: cryo-EM structure.

Snf2, sequence (P22082 whole entry): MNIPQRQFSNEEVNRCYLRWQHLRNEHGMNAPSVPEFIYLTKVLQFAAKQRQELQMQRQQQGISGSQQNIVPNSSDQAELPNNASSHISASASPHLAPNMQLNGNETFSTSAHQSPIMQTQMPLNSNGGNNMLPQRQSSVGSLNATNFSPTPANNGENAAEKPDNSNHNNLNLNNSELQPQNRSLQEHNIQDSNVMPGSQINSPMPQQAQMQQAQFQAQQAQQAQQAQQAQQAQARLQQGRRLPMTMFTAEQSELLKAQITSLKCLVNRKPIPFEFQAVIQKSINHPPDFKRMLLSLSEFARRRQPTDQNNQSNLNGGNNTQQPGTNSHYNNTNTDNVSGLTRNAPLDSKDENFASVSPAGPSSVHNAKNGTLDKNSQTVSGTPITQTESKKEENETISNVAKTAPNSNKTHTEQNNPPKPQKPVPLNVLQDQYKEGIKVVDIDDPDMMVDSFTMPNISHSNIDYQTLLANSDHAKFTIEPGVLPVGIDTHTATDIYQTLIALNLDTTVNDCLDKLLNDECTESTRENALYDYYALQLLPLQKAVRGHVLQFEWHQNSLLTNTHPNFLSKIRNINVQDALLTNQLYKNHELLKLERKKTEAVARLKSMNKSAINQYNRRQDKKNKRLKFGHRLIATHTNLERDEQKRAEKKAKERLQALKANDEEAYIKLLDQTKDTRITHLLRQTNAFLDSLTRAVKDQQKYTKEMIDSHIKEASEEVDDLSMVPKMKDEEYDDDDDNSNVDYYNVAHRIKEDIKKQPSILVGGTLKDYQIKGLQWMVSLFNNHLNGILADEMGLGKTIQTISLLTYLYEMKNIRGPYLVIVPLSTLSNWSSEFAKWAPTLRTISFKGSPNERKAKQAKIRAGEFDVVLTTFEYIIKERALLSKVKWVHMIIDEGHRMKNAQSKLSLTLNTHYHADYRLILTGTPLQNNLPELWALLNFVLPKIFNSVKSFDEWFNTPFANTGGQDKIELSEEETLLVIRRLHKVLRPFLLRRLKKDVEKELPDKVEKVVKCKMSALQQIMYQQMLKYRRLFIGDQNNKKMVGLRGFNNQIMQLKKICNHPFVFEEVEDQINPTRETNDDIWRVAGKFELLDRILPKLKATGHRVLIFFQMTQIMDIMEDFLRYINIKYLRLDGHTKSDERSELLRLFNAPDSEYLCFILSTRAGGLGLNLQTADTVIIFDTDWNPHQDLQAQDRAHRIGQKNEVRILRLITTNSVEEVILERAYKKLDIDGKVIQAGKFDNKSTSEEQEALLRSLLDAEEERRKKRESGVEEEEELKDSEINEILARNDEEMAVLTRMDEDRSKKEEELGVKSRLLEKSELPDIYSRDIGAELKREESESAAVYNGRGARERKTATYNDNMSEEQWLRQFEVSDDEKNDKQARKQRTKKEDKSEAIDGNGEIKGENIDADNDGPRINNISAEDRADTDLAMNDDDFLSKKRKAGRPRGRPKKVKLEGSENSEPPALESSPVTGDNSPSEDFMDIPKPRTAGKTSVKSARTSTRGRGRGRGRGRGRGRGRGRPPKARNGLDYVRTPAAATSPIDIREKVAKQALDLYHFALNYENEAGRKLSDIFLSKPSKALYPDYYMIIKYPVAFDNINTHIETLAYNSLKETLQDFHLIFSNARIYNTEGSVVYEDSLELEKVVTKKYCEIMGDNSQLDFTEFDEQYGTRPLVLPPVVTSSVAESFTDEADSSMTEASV

Turning to B1, the binding result with Snf2 was “binds”.

In the case of B2, the binding result in the assay with Snf2 was “binds”.

For B3, the binding result with Swi1 is “binds”.

On to B4, for which, in the assay with Snf2, the binding result is reported as “binds”.

B5: the binding result with Snf2 is on record as “binds”.
